Measured values: patent US20200239555A1 (STATEN BIOTECHNOLOGY B V, published 2020)
Several values for one entry are separate records, joined by “and”; a condition that tells them apart may be missing. Equal values may be shown once.

Experiments:
[1] = molecular target: T1, biotinylated native human ApoC3 (human, UniProt P02656 21-99, biotinylated (site not stated)); test: SPR, IgG1 over biotinylated ApoC3 on SA chip, pH 7.4; pH 7.4
T1 construct: also called biotinylated human ApoC3
Description: Biotinylated native human ApoC3 was captured on a streptavidin coated SPR chip (GE Healthcare, cat. nr. BR100032) at pH 7.4, in accordance with the method provided by Biacore, by injection of 20 μl 10 μg/ml biotinylated native human ApoC3 reaching the surface density of approximately 500 RU. 60 μL of test antibody in 1-50 nM range diluted in HBS-EP buffer (GE, cat # BR-1008-26; 0.010 M HEPES, 0.150M NaCl, 3 mM EDTA, 0.05% (v/v) surfactant P20, pH 7.4) was injected and passed through the flow cells at a flow rate of 30 μl/min, followed by an off-rate wash at pH7.4 for 5 min. After the dissociation, the flow cell surfaces were regenerated by injecting 10 μl of 10 mM NaOH/1 M NaCl and 10 μl of 10 mM glycine at pH1.5. The assay was repeated at pH5.5 using the same general protocol, where the running and sample dilution buffer was replaced by a HBS-EP buffer supplemented with citrate buffer to 10 mM final concentration and pH adjusted to 5.5.
The resulting sensorgrams were analyzed using the BIAevaluation 4.1 software using Langmuir 1:1 binding model to derive binding kinetics. Data was zero adjusted and the reference cell sensorgrams were subtracted. Sensorgrams were double referenced to no-analyte blank assay. Fitted parameters were considered not applicable if off-rate values were below the equipment's detection limit of kd: 1×10⁻⁶ 1/s.

[2] = molecular target: T1, biotinylated native human ApoC3; test: SPR, IgG1 over biotinylated ApoC3 on SA chip, pH 7.4
How it was run: (§1)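 Biotinylated native human ApoC3 was captured on a streptavidin chip (~500 RU), and IgG1 at 1-50 nM was injected in HBS-EP at pH 7.4, or at pH 5.5 with 10 mM citrate added. Dissociation was followed for 5 min. Double-referenced sensorgrams were fit to a 1:1 Langmuir model, and fits were considered not applicable when kd was below 1×10⁻⁶ 1/s.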

[3] = molecular target: T1, biotinylated native human ApoC3; test: SPR, IgG1 over biotinylated ApoC3 on SA chip
How it was run: as §1

native human ApoC3 [4] = molecular target: T2, native human ApoC3 (human, UniProt P02656 21-99); test: SPR, IgG1 over ApoC3 on CM5 chip, pH 5.5
T2 construct: also called nhuApoC3; native huApoC3
Description: (§2) Based on the results in Example 1, test scFv-Fc antibodies were generated as human IgG₁ antibodies. An SPR-based assay was employed, in which human ApoC3 protein was immobilized on a CM5 chip, and the binding kinetics of test antibodies to the coated chip were measured at both pH 7.4 and pH 5.5. Briefly, a solution of 50 μg/ml of native human ApoC3 in 10 mM acetate buffer at pH 4.5 was prepared and injected until the surface density reached approximately 500 RU. 60 μl of each test antibody was diluted in HBS-EP buffer (GE, cat. nr. BR-1008-26; 0.010 M HEPES, 0.150M NaCl, 3 mM EDTA, 0.05% (v/v) surfactant P20, pH 7.4), and was injected at a concentration as described in Table 9. The test antibodies were passed through the flow cells at a flow rate of 30 μl/min, followed by an off-rate wash at pH 7.4 or pH 5.5 for 5 min. The resulting sensorgrams were analyzed using the BIAevaluation 4.1 software applying the Langmuir 1:1 binding model to derive binding kinetics. Data was zero adjusted and the reference cell sensorgrams were subtracted.

[5] = molecular target: T1, biotinylated native human ApoC3; test: SPR, IgG1 over biotinylated ApoC3 on SA chip, pH 5.5
How it was run: as §1

native human ApoC3 [6] = molecular target: T2, native human ApoC3; test: SPR, IgG1 over ApoC3 on CM5 chip, pH 7.4
Description: as §2

T2 sequence (P02656 21-99): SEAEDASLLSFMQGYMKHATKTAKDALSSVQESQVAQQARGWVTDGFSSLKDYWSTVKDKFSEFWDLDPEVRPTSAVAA
T1 sequence (P02656 21-99): as above

B1: 5E5VH12_VLWT human IgG1 (antibody, V domains shown)
VH: QLQLVESGGGLVQPGGSLRLSCAASGFTFGTYSMRWVRQVPRKALEWVSSISTDGGGTAYRDSVKGRFTISRDNAKNTLYLQMNNLKPEDTAIYYCVIHGYSDWGQGTQVTVSS
VL: ATMLTQSPGSLSVVPGESASISCKTSQGLVHSDGKTYFYWFLQKPGQSPQQLIYQVSNRASGVPDRFTGSGSGTDFTLKISGVKAEDAGVYYCAQGTYYPHTFGSGTRLEIK
[1]
  Ka: 5.84e+10 M⁻¹
[2]
  Kd: 17.1 pM and 20 pM
  koff: 1.12e-05 s⁻¹
  kon: 656000 M⁻¹ s⁻¹
[3]
  KD pH5.5/KD pH7.4: 27.6
Native human ApoC3 [4]
  koff: 0.000374 s⁻¹
  kon: 366000 M⁻¹ s⁻¹
[5]
  Ka: 2.12e+09 M⁻¹
  Kd: 472 pM and 470 pM
  koff: 0.000143 s⁻¹
  kon: 302000 M⁻¹ s⁻¹
Native human ApoC3 [6]
  koff: 1.38e-05 s⁻¹
  kon: 393000 M⁻¹ s⁻¹
